assay: yeast display, Sf9 membrane polyspecificity reagent, FACS + sequencing; frameworks hold sequencing errors
In short: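 Nanobodies from a synthetic yeast display library (Saccharomyces cerevisiae BJ5465), induced 36–48 hours with galactose, were stained 1 hour at 4 °C with 10% biotinylated, detergent-solubilized Sf9 membrane reagent, enriched on streptavidin microbeads, then FACS-sorted. Anti-HA (expression) and streptavidin (reagent binding) fluorescence set low and high (top ~1%) gates. Polyreactivity labels come from the gate of origin. Genes were colony-PCR amplified, MiSeq 2 × 250 sequenced and filtered by CDR length.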

Sequence	polyreactivity (PSR sort gate)
QVQLVESGGGLVQAGGSLRLSCAASGSSSRRMIMGRYRQAPGKERELVAAISGSGGSTYYADSVKGRFTISRDNAKNTVYLQMNSLKPEDTAVYYCAAVLQSCYGYEYWGQGTQVTVSS	high polyreactivity
QVQLVESGGGLVQAGGSLRLSCAASGSTFAANAMGWYRQAPGKERELVAAMTSSGGSTYYADSVKGRFTISRDNAKNTVYLQMNSLKPEDTAVYYCNKDIERYVRIYDSWGQGTQVTVSS	low polyreactivity
QVQLVESGGGLVQAGGSLRLSCAASGSTFAANAMGWYRQAPGKERELVAVIRRGGSTTYADSVKGRFTISRDNAKNTVYLQMNSLKPEDTAVYYCHARVTLGRPLFTYLVRYEYWGQGTQVTVSS	high polyreactivity
QVQLVESGGGLVQAGGSLRLSCAASGSTFADNAMGWDRQAPGKERELVAAISSDGSTNYADSVKGRFTISRDNAKNTVYLQMNSLKPEDTAVYYCNADGVYLGYPVVPPEGDYWGQGTQVTVSS	low polyreactivity
QVQLVESGGGLVQAGGSLRLSCAASGSTFADNAMGWYRQAPGKERELVASISSSATSTYYADSVKGRFTISRDNAKNTVYLQMNSLKPEDSAVYYCSKGRPWYRGDFWGQGTQVTVSS	low polyreactivity
QVQLVESGGGLVQAGGSLRLSCAASGSTFAGNAMGWYRKAPGKERELVAAITFSGGRTDYADSVKGRFTISRDNAKNTVYLQMNSLNPEDTSVYYCAAPADDTVHYQNYYWGQGTQVTVSS	low polyreactivity
QVQLVESGGGLVQAGGSLRLSCAASGSTFAGNAMGWYRQAPGKERELVAAIDSSTGSTYYADSVKGRFTISRDNAKNTVYLQMNSLKPEDTAVYYCAAGYYWQYTSSSAQYAYDYWGQGTQVTVSS	low polyreactivity
QVQLVESGGGLVQAGGSLRLSCAASGSTFAGNAMGWYRQAPGKERELVAAIDSSTGSTYYSDSVKGRFTISRDNAKNTVYLQMNSLKPEDTSVYYCNKTSVLVKLDYWGQGTQVTVSS	low polyreactivity
QVQLVESGGGLVQAGGSLRLSCAASGSTFAGNAMGWYRQAPGKERELVAAISSGDRTYYADSVKGRFIISRDNAKNTVYLQMNSLKPEDTAVYYCAAGLYLQGPFDYWGQGTQVTVSS	low polyreactivity
QVQLVESGGGLVQAGGSLRLSCAASGSTFAGNAMGWYRQAPGTDRELVAAIDSSTGSTYYADSVKGRYTISRDNAKNTVYLHMNSLKPEDTAVYYCNKTSFLVTLDYWGQGTQVTVSS	low polyreactivity
QVQLVESGGGLVQAGGSLRLSCAASGSTFAGYAMGWYRQAPGKERELVAAISRGGRTYYADSVKGRFTISRDNAKNTVYLQMNSLKPEDTAVYYCAKYSAWYTYTYDYWGQGTQVTVSS	high polyreactivity
QVQLVESGGGLVQAGGSLRLSCAASGSTFAGYVMGWSRQAPGKERELVAAISRSGGSTYYADSVKGRFTISRDNAKNTVYLQMNSLKPEDTAVYYCNARYNTQRYRFLVQGDYWGQGTQVTVSS	high polyreactivity
QVQLVESGGGLVQAGGSLRLSCAASGSTFAGYVMGWYRQAPGKERELVAGISYRGGRTYYADSVKGRFTISRDNAKNTVYLQMNSLKPEDTAVYYCAAENAVTGTDGEYYYWGQGTQVTVSS	high polyreactivity
QVQLVESGGGLVQAGGSLRLSCAASGSTFAGYVMGWYRQAPGKERELVASKSWSGGSTYYADSVKGRFTISRDNAKNTVNLQMNSLKPEETAVYYSNTRRYERTDSAYPDHDYPGYYWGQATQVTVSS	low polyreactivity
QVQLVESGGGLVQAGGSLRLSCAASGSTFAHKAMGWYRQAPGKEGEFVAGISTNGGSTYYADSVKGRFTISRDNAKNTVYLQMNSLKPEDTAVYYCAAVNYYDQYGDYYWGQGTQVTVSS	low polyreactivity
QVQLVESGGGLVQAGGSLRLSCAASGSTFAIYAMGWDRGAPGKEREVVAAISWRTGSTYYADSVKGRFTISRDNAKNTVYLQMNSLKPEDTAVYYCAAEFWFFAGWAYEYWGHGTQVTVSS	high polyreactivity

Sequence	polyreactivity (PSR sort gate)
QVQLVESGGGLVQAGGSLRLSCAASGSTFAIYAMGWYRKSPGKERELVASISGGSTNYADSVKGRFTISRDNAKNTVYLQMNSLKPEDTSVYYCAARGALHHWYRFDYWGQGTQVTLSS	low polyreactivity
QVQLVESGGGLVQAGGSLRLSCAASGSTFAIYPMGWYRPAPGKERELVAAITRSGGNTYYADSVKGRFTISRDNAKNTVYLQMNSLKPEDTAVYYCNAETYYWSAYAQYEYWGQGTQVTVSS	high polyreactivity
QVQLVESGGGLVQAGGSLRLSCAASGSTFAIYPMGWYRQAPGKETALVAAITRSGGNTYYADSVKGRFTISRDNAKNTVYLQMNSLKPEDTAVYYCNAETYYWSAYAQYDYWGQGTQVTVSS	high polyreactivity
QVQLVESGGGLVQAGGSLRLSCAASGSTFAKYAMGWYRQAPGKERELVAAISLSGGSTYYADSVKGRFTISRDNAKNTVYLQMNSLKPEDTAVYYCNTPPSRYVRYGIYRYDYWGQGTQVTVSS	high polyreactivity
QVQLVESGGGLVQAGGSLRLSCAASGSTFALYPMGCYRQAPGKERELVAGITIDGSTNYADSVKGRFTISRDNAKNTVYLQMNSLKPEDTAVYYCNADSYKYPLLKYRSDYWGQGTQVTVSS	low polyreactivity
QVQLVESGGGLVQAGGSLRLSCAASGSTFANNDMGWYRQAPGIEREMVADIRSGGNTNYADSVKGRFTISRDNAKNTVVLQMHSVKPEDTAVYYCATDGYRIDVYQPDYRYDYWGQGTQVTVSS	low polyreactivity
QVQLVESGGGLVQAGGSLRLSCAASGSTFANYAMGWYRQAPGKERELVAAISRGGNTYYADSVKGRFTISRDNAKNTVYLQMNSLKPEDTAVYYCAARAPRFSRSSQPGDYWGQGTQVTVSS	high polyreactivity
QVQLVESGGGLVQAGGSLRLSCAASGSTFANYAMGWYRQAPGKERELVAVISWGGGSTYYADSVKGRFTISRDNAKNTVYLQMNSLKPEDTAVYYCAAVYDEYQTTHEYDYWGQGTQVNVSS	low polyreactivity
QVQLVESGGGLVQAGGSLRLSCAASGSTFAPNAMGWYRQAPGKERELVASIRRGGSTHYADSVKGRFTISRDNAKNTVYVQMNSLKPEDTAVYYCAKDVWRHYLNLYDYWGQGTQVTVSS	low polyreactivity
QVQLVESGGGLVQAGGSLRLSCAASGSTFAPNTMGWYRQAPGKERELVARITTSDGSTTYADSVKGRFTISRDYAKNTVFFQMNILNPEDTAVYYCARDNTFCTWPSSLYDYWGQGTQVTVSS	low polyreactivity
QVQLVESGGGLVQAGGSLRLSCAASGSTFAPYAMGWYRQAPGKERELVAVITWSGGRTYYADSVKGRFTISRDNAKNTVYLQMNSLKPEDTAVYYCNDVPLLQGFNYWGQGTQGTVSS	high polyreactivity
QVQLVESGGGLVQAGGSLRLSCAASGSTFAPYAMGWYRQAPGTERELVAALTTGGSTNYADYVKGRFTISRDNATNTVYLQMNSLKPEDTAVYYCNAEYGGGVDGTYKYYSEYDYWGQGTQVTVSS	low polyreactivity
QVQLVESGGGLVQAGGSLRLSCAASGSTFAQNVMGWYRQAPGKERELVAAITSSGSTNYADSVKGRFTISRDNAKNTVYLQMNILKPEDTAVFYCAKDVLAPYSRHDYWGQGTQVTVSS	low polyreactivity
QVQLVESGGGLVQAGGSLRLSCAASGSTFAQYAMGWYRQAPAKERELVAVISKRGGRTYYADSVKGRFTISRDNGKNTVYLQMNSLKPEDTAGYYCAADSGGPGYAMDYWGQGTQVTVSS	high polyreactivity
QVQLVESGGGLVQAGGSLRLSCAASGSTFARYAMGWYRQAPGKERELVAAISITGSTYYADSVKGRFTISRDNAKNTVYLQMNSLNPEDTAVYYCNVKSKYRYGYWGQGTQVTVSS	high polyreactivity
